According to article PMC13291817:

Columns and labels:
[1] = target: RGH2-Exo70 domain (residues 1033-1637), purified from E. coli (barley (Hordeum vulgare)); experiment: ITC; MicroCal PEAQ-ITC; […]; 25 °C; 20 mM HEPES pH 7.5, 150 mM NaCl, 5% glycerol; […]
[2] = target: RGH2^+-Exo70 domain (residues 1033-1637), purified from E. coli (barley (Hordeum vulgare)); experiment: as above

For “AVR-Pii^Rb, purified from E. coli (natural protein)”, which Kd [1] is on record?
Its Kd is 15 µM.

What about the Kd [2] of the same substance?
Its Kd is 3.12 µM.
